Target: taxol-stabilized microtubules polymerized from porcine brain tubulin (UniProt P02550)
Experiment: MT-binding assay (cosedimentation)
Conditions: 5 μM CG2 mutant, […] taxol–MTs; parent: est. 1.0; read off a plot

taxol-stabilized microtubules polymerized from porcine brain tubulin, sequence (P02550 whole entry, chain 1 of 2): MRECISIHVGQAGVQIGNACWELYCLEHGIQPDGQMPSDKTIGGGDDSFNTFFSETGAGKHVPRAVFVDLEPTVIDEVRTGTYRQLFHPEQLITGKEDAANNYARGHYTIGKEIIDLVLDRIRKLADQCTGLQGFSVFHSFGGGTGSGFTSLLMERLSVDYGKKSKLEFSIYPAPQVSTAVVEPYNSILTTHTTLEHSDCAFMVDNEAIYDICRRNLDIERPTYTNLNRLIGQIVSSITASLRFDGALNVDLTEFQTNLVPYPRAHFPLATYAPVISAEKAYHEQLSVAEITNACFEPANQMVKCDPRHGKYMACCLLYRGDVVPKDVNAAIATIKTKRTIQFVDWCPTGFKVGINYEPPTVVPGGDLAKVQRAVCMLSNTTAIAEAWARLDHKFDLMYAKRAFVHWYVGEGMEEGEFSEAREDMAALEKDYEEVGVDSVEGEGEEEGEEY
taxol-stabilized microtubules polymerized from porcine brain tubulin, sequence (chain, as listed by the source, chain 2 of 2): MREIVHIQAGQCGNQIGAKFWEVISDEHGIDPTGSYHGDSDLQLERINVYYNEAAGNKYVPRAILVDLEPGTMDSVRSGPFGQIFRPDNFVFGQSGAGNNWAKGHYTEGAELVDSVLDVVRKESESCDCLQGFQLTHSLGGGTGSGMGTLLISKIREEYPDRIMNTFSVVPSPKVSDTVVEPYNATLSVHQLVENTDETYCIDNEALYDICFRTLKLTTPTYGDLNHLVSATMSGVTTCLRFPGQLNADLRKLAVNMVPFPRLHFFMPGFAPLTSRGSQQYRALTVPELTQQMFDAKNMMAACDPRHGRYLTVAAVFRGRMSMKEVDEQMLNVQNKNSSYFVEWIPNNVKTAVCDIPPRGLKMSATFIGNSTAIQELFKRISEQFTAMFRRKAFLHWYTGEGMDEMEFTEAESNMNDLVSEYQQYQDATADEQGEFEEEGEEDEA
CLIP-170 CG2 fragment (206-288), P30622 H276A, sequence (P30622 206-288 H276A): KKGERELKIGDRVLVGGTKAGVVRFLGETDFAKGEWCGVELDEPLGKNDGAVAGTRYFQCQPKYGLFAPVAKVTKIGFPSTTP

In the case of “CLIP-170 CG2 fragment (206-288), P30622 H276A”, the ratio to parent is reported as 0.91.
